Laboratory results reported in paper PMC2796264.

Target: 26S proteasome purified from rabbit muscle (rabbit (endogenous in muscle))

## polyubiquitinated E6AP (from UniProt P0CG47 1-76)
  hydrolysis of suc-GGL-amc by rabbit 26S proteasomes with ubiquitinated E6AP: < 4 fold
